The values that follow come from patent US20230312722A1 (NONA BIOSCIENCES SUZHOU, published 2023).

What is called EC50 is the concentration giving half of the maximal effect. As usually defined, the EC50 (read off the curve) is the concentration needed to bring the measured effect to its halfway point.

Read-outs that look alike come from different tables or passages of the source.

Test [1] has as its target T1, mouse B7H4 on the cell surface (mouse, UniProt Q7TSP5 25-257).
T1 construct: whole, on cells; also called CHOK1/m B7H4
T1 sequence (looked up): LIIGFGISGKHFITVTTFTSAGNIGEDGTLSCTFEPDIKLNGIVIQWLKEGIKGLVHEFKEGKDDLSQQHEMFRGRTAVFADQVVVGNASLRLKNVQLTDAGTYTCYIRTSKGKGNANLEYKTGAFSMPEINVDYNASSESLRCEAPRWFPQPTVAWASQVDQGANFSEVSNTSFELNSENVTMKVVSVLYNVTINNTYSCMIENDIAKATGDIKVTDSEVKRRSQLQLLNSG
The experiment in a line: FACS, CHOK1/m B7H4 cells. The protocol:
(§1) This example is intended to investigate the in vitro binding activity of anti-human B7H4 H2L2 monoclonal antibody to human/cynomolgus monkey/mouse B7H4. Antibody binding experiments at the cellular level were performed using CHOK1 cell line overexpressing human B7H4 (CHOK1/hu B7H4, Harbour BioMed), CHOK1 cell line overexpressing cynomolgus monkey B7H4 (CHOK1/cyno B7H4, Harbour BioMed), CHOK1 cell line overexpressing mouse B7H4 (CHOK1/m B7H4, Harbour BioMed) and SK-BR-3 cell line (ATCC® HTB-30) highly expressing human B7H4. Briefly, CHOK1/hu B7H4 cells, CHOK1/cyno B7H4 cells, CHOK1/m B7H4 cells or SK-BR-3 cells were digested and resuspended with PBS containing 2% BSA. The cell density was adjusted to 1×10⁶ cells/mL. The cells were seeded in a 96-well V-bottom plate (Corning, #3894) at 100 μL/well, followed by the addition of test antibodies diluted in a 3-fold concentration gradient of 2 times the final concentration, each at 100 μL/well. The cells were incubated at 4° C. for 2 h away from light. Thereafter, the cells in each well were rinsed twice with 100 μL of pre-cooled PBS containing 2% BSA, and centrifuged at 500 g at 4° C. for 5 min, and then the supernatant was discarded. […] Finally, the cells in each well were resuspended with 200 μL of pre-cooled PBS containing 2% BSA, and the fluorescence signal values were read using an ACEA Novocyte3000 flow cytometer.
(In general: Flow cytometry measures light scatter and fluorescence of single cells or particles in a stream.)

Test [2] addresses T2, human B7H4 on the cell surface (human, UniProt Q7Z7D3 25-282).
T2 construct: whole, on cells; also called CHOK1/hu B7H4; B7H4 on SK-BR-3
T2 sequence (looked up): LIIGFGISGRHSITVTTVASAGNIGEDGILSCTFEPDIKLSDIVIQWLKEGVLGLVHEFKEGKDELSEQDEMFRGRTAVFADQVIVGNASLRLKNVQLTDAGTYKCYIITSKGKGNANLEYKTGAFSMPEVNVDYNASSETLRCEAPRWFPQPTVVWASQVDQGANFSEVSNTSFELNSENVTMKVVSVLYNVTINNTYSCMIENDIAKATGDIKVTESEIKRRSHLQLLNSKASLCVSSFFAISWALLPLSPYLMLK
The test can be described thus: FACS on MDA-MB-468 cells.

The target of test [3] is T3, B7-H4 (Acro Biosystems, #B74-H82E2) (UniProt Q7Z7D3 29-258).
T3 construct: Bought protein; also called B7-H4 captured on SA sensor
T3 sequence (looked up): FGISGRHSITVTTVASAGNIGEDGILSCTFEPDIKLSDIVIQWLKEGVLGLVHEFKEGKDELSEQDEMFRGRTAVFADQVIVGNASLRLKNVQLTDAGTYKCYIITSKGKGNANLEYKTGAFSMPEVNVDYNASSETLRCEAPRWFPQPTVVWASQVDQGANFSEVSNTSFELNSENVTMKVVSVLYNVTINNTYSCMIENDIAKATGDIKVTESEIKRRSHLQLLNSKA
The test can be described thus: BLI epitope competition; 1st Ab = row; competitor (2nd Ab) PR002418; inhibition of the 2nd Ab signal. The protocol:
Step one, acquisition of 100% signal of antibodies: B7-H4 (Acro Biosystems, #B74-H82E2-200 μg) was captured at a capture height of 0.25 nm using an SA sensor (Fortebio, #18-5019). The sensor was equilibrated in a buffer for 120 s and then immersed in each antibody diluted to 100 nM for 240 s, and the final signal of the antibody binding to B7-H4 was recorded as the 100% signal of the antibody. Step two, epitope competition experiment: B7-H4 was captured using an SA sensor at a capture height of 0.25 nm. The sensor was immersed in a primary antibody (at a concentration of 100 nM) for 240 s, and then the SA sensor was immersed in a mixture of the primary and secondary antibodies (both at a final concentration of 100 nM) for 240 s, and the difference in signals after immersion of the sensor in the antibody mixture was recorded as the signal of the antibody as the secondary antibody. The inhibition rate was calculated according to the following formula: […]

In test [4] the target is T4, cynomolgus monkey B7H4 on the cell surface (cynomolgus monkey, UniProt A0A2K5U6P5 25-282).
T4 construct: whole, on cells; also called CHOK1/cyno B7H4
T4 sequence: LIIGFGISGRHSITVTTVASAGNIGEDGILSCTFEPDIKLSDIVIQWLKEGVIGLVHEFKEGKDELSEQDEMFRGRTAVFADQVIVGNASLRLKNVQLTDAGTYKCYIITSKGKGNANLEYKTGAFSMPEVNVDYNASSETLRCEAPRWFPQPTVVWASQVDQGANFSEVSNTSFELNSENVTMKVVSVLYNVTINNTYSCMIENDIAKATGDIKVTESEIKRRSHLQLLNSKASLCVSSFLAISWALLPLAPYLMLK
The experiment in a line: FACS, CHOK1/cyno B7H4 cells. The protocol:
(§2) This example is intended to investigate the in vitro binding activity of anti-human B7H4 H2L2 monoclonal antibody to human/cynomolgus monkey/mouse B7H4. Antibody binding experiments at the cellular level were performed using CHOK1 cell line overexpressing human B7H4 (CHOK1/hu B7H4, Harbour BioMed), CHOK1 cell line overexpressing cynomolgus monkey B7H4 (CHOK1/cyno B7H4, Harbour BioMed), CHOK1 cell line overexpressing mouse B7H4 (CHOK1/m B7H4, Harbour BioMed) and SK-BR-3 cell line (ATCC® HTB-30) highly expressing human B7H4. Briefly, CHOK1/hu B7H4 cells, CHOK1/cyno B7H4 cells, CHOK1/m B7H4 cells or SK-BR-3 cells were digested and resuspended with PBS containing 2% BSA. The cell density was adjusted to 1×10⁶ cells/mL. The cells were seeded in a 96-well V-bottom plate (Corning, #3894) at 100 μL/well, followed by the addition of test antibodies diluted in a 3-fold concentration gradient of 2 times the final concentration, each at 100 μL/well. The cells were incubated at 4° C. for 2 h away from light. Thereafter, the cells in each well were rinsed twice with 100 μL of pre-cooled PBS containing 2% BSA, and centrifuged at 500 g at 4° C. for 5 min, and then the supernatant was discarded. Then 100 μL of a fluorescent secondary antibody (Alexa Fluor 488-conjugated AffiniPure Goat Anti-Human IgG, Fcγ Fragment Specific, Jackson, #109-545-098, 1:500 diluted) was added to each well. The plate was incubated away from light at 4° C. for 1 h. The cells in each well were washed twice with 100 μL of pre-cooled PBS containing 2% BSA, and centrifuged at 500 g at 4° C. for 5 minutes, and then the supernatant was discarded. Finally, the cells in each well were resuspended with 200 μL of pre-cooled PBS containing 2% BSA, and the fluorescence signal values were read using an ACEA Novocyte3000 flow cytometer.

Test [5] has as its target T2, human B7H4 on the cell surface. The experiment in a line: FACS, SK-BR-3 cells. The protocol: as §1
Test [6] shares this target. The test can be described thus: FACS, SK-BR-3 cells. How it is done:
as §2
This is another data set of the same source.

Test [7] shares this target. The experiment in a line: FACS on MDA-MB-468 cells; in the drawn table the number stands under the head 'EC50 (nM)' (the two heads are interchanged).

B1: Control antibody 1 (PR000157) (antibody, V domains shown)
VH: EVQLVQSGAEVKKPGASVKVSCKASGYTFTSYWIGWVRQAPGQGLEWIGDIYPGGGYTNYNEKFKGRVTITRDTSTSTAYLELSSLRSEDTAVYYCARLAGSSYRGAMDSWGQGTLVTVSS
VL: DIQMTQSPSSLSASVGDRVTITCKASQGFNKYVAWYQQKPGKAPKLLIYYTSTLQPGVPSRFSGSGSGRDYTLTISSLQPEDFATYYCLQYGDLLYAFGQGTKVEIKR
notes: Anti-B7H4 IgG1 control antibody from WO2016040724A1; also called 1D11.v1.9varC2
For the molecule B1, the concentration giving a half-maximal response (EC50) in test [1] was 1.73 nM; in test [4], 2.06 nM; in test [5], 1.2 nM; in test [6], 1.18 nM. For the same molecule, the “Maximum MFI” value in test [1] amounted to 1.75e+06 MFI; in test [4], 1.32e+06 MFI; in test [5] it was 266000 MFI; in test [6] it was 316000 MFI; in test [7] it was 254000. For the same molecule, the “EC50 (read off the curve)” value in test [2] was roughly 0.2 µg/mL. Moreover, the “Competitive inhibition rate (%)” value in test [3] was 4.55%.
